Data published in paper PMC10132761.

Biological target: peptide encoding HTP-3 closure motif #4 (C. elegans)
Test: fluorescence polarisation; 50 nM N-terminal FITC-Ahx peptide plus indicated amounts of HIM-3 (WT or R93Y); 20 mM Tris pH 7.5, 300 mM NaCl, 10% glycerol, 1 mM DTT, 0.1% NP-40; 60 minutes at room temperature; triplicate; single-site binding model

Kd | Binder
220 nM | HIM-3 (wildtype, residues 2-291) (natural protein) ATKEQIVEHRESEIPIASQWKATFPVDLEIEKNSEMFALRYIKCASAFILDRRGILDEKCFKTRTIDKLLVTAFQSSVPAAKRVSSTFDGLRDAIQQGYLREFAIVFYKKPNEEDINEVFAFRFAYGDEGEIFVSLNNGIDTNESSQELLQAKFVDTDNTKQMFASTIKKLHRCIKKMEPLPQGSDASFRVSYTEKAPKDYTPEGYLLSPMFYTLNQDIRKASIGIVCGGHHKIQMLAASQYLKQDFDLDKTTTLNPNMSIMANQSKRKGRISRDSPYGLSQGITKKNKD
690 nM | HIM-3^R93Y (residues 2-291) (natural protein) ATKEQIVEHRESEIPIASQWKATFPVDLEIEKNSEMFALRYIKCASAFILDRRGILDEKCFKTRTIDKLLVTAFQSSVPAAKRVSSTFDGLYDAIQQGYLREFAIVFYKKPNEEDINEVFAFRFAYGDEGEIFVSLNNGIDTNESSQELLQAKFVDTDNTKQMFASTIKKLHRCIKKMEPLPQGSDASFRVSYTEKAPKDYTPEGYLLSPMFYTLNQDIRKASIGIVCGGHHKIQMLAASQYLKQDFDLDKTTTLNPNMSIMANQSKRKGRISRDSPYGLSQGITKKNKD
